Measurements taken from publication PMC9482650, “Quantitative fragmentomics allow affinity mapping of interactomes” (Nature Communications, 2022).

T1: LIN7A, O14910
T1 sequence (O14910 103-200, limits assumed, looked up): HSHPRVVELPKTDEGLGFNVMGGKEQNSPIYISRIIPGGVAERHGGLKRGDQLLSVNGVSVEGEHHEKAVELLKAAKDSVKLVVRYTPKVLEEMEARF

T2: RADIL, Q96JH8
T2 sequence (Q96JH8 971-1071, limits assumed, looked up): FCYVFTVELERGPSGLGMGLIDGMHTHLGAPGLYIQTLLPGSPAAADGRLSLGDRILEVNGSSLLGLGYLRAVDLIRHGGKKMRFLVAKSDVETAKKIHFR

T3: TIAM2, Q8IVF5
T3 sequence (Q8IVF5 885-986, limits assumed, looked up): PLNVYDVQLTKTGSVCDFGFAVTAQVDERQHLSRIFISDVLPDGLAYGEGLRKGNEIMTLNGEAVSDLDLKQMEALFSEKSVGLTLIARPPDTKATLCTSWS

T4: MPDZ_10, O75970
T4 sequence (O75970 1624-1722, limits assumed, looked up): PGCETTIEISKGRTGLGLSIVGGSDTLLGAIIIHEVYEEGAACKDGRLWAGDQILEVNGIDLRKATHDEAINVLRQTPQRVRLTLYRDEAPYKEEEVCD

T5: NHERF3_1, Q5T2W1
T5 sequence (Q5T2W1 4-100, limits assumed, looked up): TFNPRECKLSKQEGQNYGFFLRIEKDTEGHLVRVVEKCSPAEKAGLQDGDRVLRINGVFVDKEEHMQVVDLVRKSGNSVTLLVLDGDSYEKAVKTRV

T6: PCLO, Q9Y6V0
T6 sequence (Q9Y6V0 4491-4600, limits assumed, looked up): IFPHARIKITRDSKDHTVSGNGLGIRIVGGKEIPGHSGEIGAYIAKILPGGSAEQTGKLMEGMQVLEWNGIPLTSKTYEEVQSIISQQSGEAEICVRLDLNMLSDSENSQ

T7: GRIP1_3, Q9Y3R0
T7 sequence (Q9Y3R0 247-346, limits assumed, looked up): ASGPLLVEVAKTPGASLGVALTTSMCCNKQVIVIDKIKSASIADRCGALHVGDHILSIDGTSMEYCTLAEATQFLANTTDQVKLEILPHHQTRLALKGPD

T8: APBA1_1, Q02410
T8 sequence (Q02410 651-752, limits assumed, looked up): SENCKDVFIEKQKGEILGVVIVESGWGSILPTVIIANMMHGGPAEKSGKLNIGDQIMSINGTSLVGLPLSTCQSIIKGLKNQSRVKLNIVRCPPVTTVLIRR

T9: GRIP1_7, Q9Y3R0
T9 sequence (Q9Y3R0 999-1096, limits assumed, looked up): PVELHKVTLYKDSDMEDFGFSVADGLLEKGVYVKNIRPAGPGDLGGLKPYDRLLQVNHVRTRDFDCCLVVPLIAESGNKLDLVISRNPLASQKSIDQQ

T10: GRIP1_2, Q9Y3R0
T10 sequence (Q9Y3R0 145-248, limits assumed, looked up): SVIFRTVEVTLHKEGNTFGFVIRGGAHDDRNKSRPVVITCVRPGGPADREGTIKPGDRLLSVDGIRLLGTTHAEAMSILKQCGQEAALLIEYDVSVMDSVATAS

B1: TRIP6, Q15654 (peptide)
chain: ELSATVTTDC
B2: PLEKHA1, Q9HB21 (peptide)
chain: DDASLPVSDV

target: NHERF4_4, Q86UT5; assay: holdup assay; set-up: key: below the threshold = too weak to quantify, mostly under pKd 3.1 to 4; conditions: plain residues with an end cap or a label only (N-terminal biotin on a linker: ado-ado)
Sequence (Q86UT5 464-550): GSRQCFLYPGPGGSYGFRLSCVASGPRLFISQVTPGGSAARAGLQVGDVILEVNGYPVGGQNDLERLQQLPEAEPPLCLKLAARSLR

Row | pKd | Binder
1 | below the threshold | B1
2 | below the threshold | B2

target: TJP1_3, Q07157; assay: holdup assay; set-up: key: below the threshold = too weak to quantify, mostly under pKd 3.1 to 4; conditions: plain residues with an end cap or a label only (N-terminal biotin on a linker: ado-ado)
Sequence (Q07157 416-512): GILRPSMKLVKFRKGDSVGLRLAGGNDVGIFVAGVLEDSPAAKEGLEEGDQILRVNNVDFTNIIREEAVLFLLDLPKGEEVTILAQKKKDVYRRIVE

Row | pKd | Binder
3 | below the threshold | B1
4 | below the threshold | B2

target: T1, LIN7A, O14910; assay: holdup assay; set-up: key: below the threshold = too weak to quantify, mostly under pKd 3.1 to 4; conditions: plain residues with an end cap or a label only (N-terminal biotin on a linker: ado-ado)

Row | pKd | Binder
5 | below the threshold | B1
6 | below the threshold | B2

target: GRIP2_7, Q9C0E4; assay: holdup assay; set-up: key: below the threshold = too weak to quantify, mostly under pKd 3.1 to 4; conditions: plain residues with an end cap or a label only (N-terminal biotin on a linker: ado-ado)
Sequence (Q9C0E4 934-1023): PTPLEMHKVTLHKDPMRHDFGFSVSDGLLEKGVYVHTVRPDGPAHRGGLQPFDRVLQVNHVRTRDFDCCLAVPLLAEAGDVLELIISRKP

Row | pKd | Binder
7 | below the threshold | B1
8 | below the threshold | B2

target: T2, RADIL, Q96JH8; assay: holdup assay; set-up: key: below the threshold = too weak to quantify, mostly under pKd 3.1 to 4; conditions: plain residues with an end cap or a label only (N-terminal biotin on a linker: ado-ado)

Row | pKd | Binder
9 | 3.52 | B1
10 | 3.59 | B2

target: GRID2IP_1, A4D2P6; assay: holdup assay; set-up: key: below the threshold = too weak to quantify, mostly under pKd 3.1 to 4; conditions: plain residues with an end cap or a label only (N-terminal biotin on a linker: ado-ado)
Sequence (A4D2P6 1-87): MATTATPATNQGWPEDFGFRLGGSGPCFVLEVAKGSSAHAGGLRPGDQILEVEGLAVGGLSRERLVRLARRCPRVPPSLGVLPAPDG

Row | pKd | Binder
11 | below the threshold | B1
12 | below the threshold | B2

target: TJP1_2, Q07157; assay: holdup assay; set-up: key: below the threshold = too weak to quantify, mostly under pKd 3.1 to 4; conditions: plain residues with an end cap or a label only (N-terminal biotin on a linker: ado-ado)
Sequence (Q07157 181-274): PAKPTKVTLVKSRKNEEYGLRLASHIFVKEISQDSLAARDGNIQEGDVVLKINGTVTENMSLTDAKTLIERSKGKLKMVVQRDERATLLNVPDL

Row | pKd | Binder
13 | 4.06 | B1
14 | below the threshold | B2

target: GIPC2, Q8TF65; assay: holdup assay; set-up: key: below the threshold = too weak to quantify, mostly under pKd 3.1 to 4; conditions: plain residues with an end cap or a label only (N-terminal biotin on a linker: ado-ado)
Sequence (Q8TF65 112-203): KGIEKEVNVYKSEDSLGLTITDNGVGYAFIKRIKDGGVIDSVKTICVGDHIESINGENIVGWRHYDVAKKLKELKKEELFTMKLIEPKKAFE

Row | pKd | Binder
15 | below the threshold | B1
16 | below the threshold | B2

target: LDB3, O75112; assay: holdup assay; set-up: key: below the threshold = too weak to quantify, mostly under pKd 3.1 to 4; conditions: plain residues with an end cap or a label only (N-terminal biotin on a linker: ado-ado)
Sequence (O75112 1-94): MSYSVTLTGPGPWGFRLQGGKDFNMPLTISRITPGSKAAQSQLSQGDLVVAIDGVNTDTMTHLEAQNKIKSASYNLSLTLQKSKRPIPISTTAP

Row | pKd | Binder
17 | 3.72 | B1
18 | below the threshold | B2

target: GOPC, Q9HD26; assay: holdup assay; set-up: key: below the threshold = too weak to quantify, mostly under pKd 3.1 to 4; conditions: plain residues with an end cap or a label only (N-terminal biotin on a linker: ado-ado)

Row | pKd | Binder
19 | below the threshold | B1
20 | 4.25 | B2

target: DLG1_3, Q12959; assay: holdup assay; set-up: key: below the threshold = too weak to quantify, mostly under pKd 3.1 to 4; conditions: plain residues with an end cap or a label only (N-terminal biotin on a linker: ado-ado)

Row | pKd | Binder
21 | 4.02 | B1
22 | below the threshold | B2

target: DLG1_1, Q12959; assay: holdup assay; set-up: key: below the threshold = too weak to quantify, mostly under pKd 3.1 to 4; conditions: plain residues with an end cap or a label only (N-terminal biotin on a linker: ado-ado)

Row | pKd | Binder
23 | below the threshold | B1
24 | below the threshold | B2

target: T3, TIAM2, Q8IVF5; assay: holdup assay; set-up: key: below the threshold = too weak to quantify, mostly under pKd 3.1 to 4; conditions: plain residues with an end cap or a label only (N-terminal biotin on a linker: ado-ado)

Row | pKd | Binder
25 | below the threshold | B1
26 | below the threshold | B2

target: DLG2_3, Q15700; assay: holdup assay; set-up: key: below the threshold = too weak to quantify, mostly under pKd 3.1 to 4; conditions: plain residues with an end cap or a label only (N-terminal biotin on a linker: ado-ado)

Row | pKd | Binder
27 | 3.57 | B1
28 | below the threshold | B2

target: Inadl_1, Q8NI35; assay: holdup assay; set-up: key: below the threshold = too weak to quantify, mostly under pKd 3.1 to 4; conditions: plain residues with an end cap or a label only (N-terminal biotin on a linker: ado-ado)
Sequence (Q8NI35 113-229): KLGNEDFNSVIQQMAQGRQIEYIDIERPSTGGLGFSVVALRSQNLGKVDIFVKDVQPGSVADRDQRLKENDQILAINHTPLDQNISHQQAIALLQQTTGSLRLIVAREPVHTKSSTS

Row | pKd | Binder
29 | below the threshold | B1
30 | below the threshold | B2

target: MAGI2_2, Q86UL8; assay: holdup assay; set-up: key: below the threshold = too weak to quantify, mostly under pKd 3.1 to 4; conditions: plain residues with an end cap or a label only (N-terminal biotin on a linker: ado-ado)
Sequence (Q86UL8 410-522): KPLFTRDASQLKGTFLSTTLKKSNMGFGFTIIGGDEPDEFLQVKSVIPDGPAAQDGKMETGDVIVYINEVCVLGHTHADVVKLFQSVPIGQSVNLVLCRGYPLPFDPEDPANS

Row | pKd | Binder
31 | below the threshold | B1
32 | below the threshold | B2

target: T4, MPDZ_10, O75970; assay: holdup assay; set-up: key: below the threshold = too weak to quantify, mostly under pKd 3.1 to 4; conditions: plain residues with an end cap or a label only (N-terminal biotin on a linker: ado-ado)

Row | pKd | Binder
33 | below the threshold | B1
34 | 3.91 | B2

target: T5, NHERF3_1, Q5T2W1; assay: holdup assay; set-up: key: below the threshold = too weak to quantify, mostly under pKd 3.1 to 4; conditions: plain residues with an end cap or a label only (N-terminal biotin on a linker: ado-ado)

Row | pKd | Binder
35 | below the threshold | B1
36 | below the threshold | B2

target: GORASP2, Q9H8Y8; assay: holdup assay; set-up: key: below the threshold = too weak to quantify, mostly under pKd 3.1 to 4; conditions: plain residues with an end cap or a label only (N-terminal biotin on a linker: ado-ado)

Row | pKd | Binder
37 | below the threshold | B1
38 | below the threshold | B2

target: T6, PCLO, Q9Y6V0; assay: holdup assay; set-up: key: below the threshold = too weak to quantify, mostly under pKd 3.1 to 4; conditions: plain residues with an end cap or a label only (N-terminal biotin on a linker: ado-ado)

Row | pKd | Binder
39 | below the threshold | B1
40 | below the threshold | B2

target: SCRIB_3, Q14160; assay: holdup assay; set-up: key: below the threshold = too weak to quantify, mostly under pKd 3.1 to 4; conditions: plain residues with an end cap or a label only (N-terminal biotin on a linker: ado-ado)
Sequence (Q14160 999-1103): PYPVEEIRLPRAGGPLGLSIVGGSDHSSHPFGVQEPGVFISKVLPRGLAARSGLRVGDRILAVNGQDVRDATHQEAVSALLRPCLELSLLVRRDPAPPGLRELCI

Row | pKd | Binder
41 | 4.24 | B1
42 | 4.1 | B2

target: DLG2_2, Q15700; assay: holdup assay; set-up: key: below the threshold = too weak to quantify, mostly under pKd 3.1 to 4; conditions: plain residues with an end cap or a label only (N-terminal biotin on a linker: ado-ado)

Row | pKd | Binder
43 | 3.59 | B1
44 | below the threshold | B2

target: MAGI2_3, Q86UL8; assay: holdup assay; set-up: key: below the threshold = too weak to quantify, mostly under pKd 3.1 to 4; conditions: plain residues with an end cap or a label only (N-terminal biotin on a linker: ado-ado)
Sequence (Q86UL8 600-682): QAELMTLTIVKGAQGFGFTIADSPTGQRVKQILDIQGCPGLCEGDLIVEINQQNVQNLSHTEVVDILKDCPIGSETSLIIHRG

Row | pKd | Binder
45 | 3.56 | B1
46 | below the threshold | B2

target: T7, GRIP1_3, Q9Y3R0; assay: holdup assay; set-up: key: below the threshold = too weak to quantify, mostly under pKd 3.1 to 4; conditions: plain residues with an end cap or a label only (N-terminal biotin on a linker: ado-ado)

Row | pKd | Binder
47 | below the threshold | B1
48 | below the threshold | B2

target: AHNAK1, Q09666; assay: holdup assay; set-up: key: below the threshold = too weak to quantify, mostly under pKd 3.1 to 4; conditions: plain residues with an end cap or a label only (N-terminal biotin on a linker: ado-ado)
Sequence (Q09666 4-100): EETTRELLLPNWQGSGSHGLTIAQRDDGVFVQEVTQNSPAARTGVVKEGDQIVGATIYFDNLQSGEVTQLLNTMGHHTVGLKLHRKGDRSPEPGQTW

Row | pKd | Binder
49 | below the threshold | B1
50 | below the threshold | B2

target: T8, APBA1_1, Q02410; assay: holdup assay; set-up: key: below the threshold = too weak to quantify, mostly under pKd 3.1 to 4; conditions: plain residues with an end cap or a label only (N-terminal biotin on a linker: ado-ado)

Row | pKd | Binder
51 | below the threshold | B1
52 | below the threshold | B2

target: T9, GRIP1_7, Q9Y3R0; assay: holdup assay; set-up: key: below the threshold = too weak to quantify, mostly under pKd 3.1 to 4; conditions: plain residues with an end cap or a label only (N-terminal biotin on a linker: ado-ado)

Row | pKd | Binder
53 | below the threshold | B1
54 | below the threshold | B2

target: T10, GRIP1_2, Q9Y3R0; assay: holdup assay; set-up: key: below the threshold = too weak to quantify, mostly under pKd 3.1 to 4; conditions: plain residues with an end cap or a label only (N-terminal biotin on a linker: ado-ado)

Row | pKd | Binder
55 | below the threshold | B1
56 | below the threshold | B2
